From patent publication US20110064653A1 (IMMUNOMEDICS, published 2011) come the findings set out here.

The target of experiment [1] is CEACAM5/CEACAM6. The experiment in a line: cell-based or functional assay.
Experiment [2] deals with CEACAM6 (NCA-90) on cells (human) (UniProt P40199). The experiment in a line: cell-based or functional assay.
Experiment [3] concerns the target T1, carcinoembryonic antigen (CEA) (human, UniProt P06731 35-685).
T1 construct: also called CEACAM5; CD66e
T1 sequence (looked up): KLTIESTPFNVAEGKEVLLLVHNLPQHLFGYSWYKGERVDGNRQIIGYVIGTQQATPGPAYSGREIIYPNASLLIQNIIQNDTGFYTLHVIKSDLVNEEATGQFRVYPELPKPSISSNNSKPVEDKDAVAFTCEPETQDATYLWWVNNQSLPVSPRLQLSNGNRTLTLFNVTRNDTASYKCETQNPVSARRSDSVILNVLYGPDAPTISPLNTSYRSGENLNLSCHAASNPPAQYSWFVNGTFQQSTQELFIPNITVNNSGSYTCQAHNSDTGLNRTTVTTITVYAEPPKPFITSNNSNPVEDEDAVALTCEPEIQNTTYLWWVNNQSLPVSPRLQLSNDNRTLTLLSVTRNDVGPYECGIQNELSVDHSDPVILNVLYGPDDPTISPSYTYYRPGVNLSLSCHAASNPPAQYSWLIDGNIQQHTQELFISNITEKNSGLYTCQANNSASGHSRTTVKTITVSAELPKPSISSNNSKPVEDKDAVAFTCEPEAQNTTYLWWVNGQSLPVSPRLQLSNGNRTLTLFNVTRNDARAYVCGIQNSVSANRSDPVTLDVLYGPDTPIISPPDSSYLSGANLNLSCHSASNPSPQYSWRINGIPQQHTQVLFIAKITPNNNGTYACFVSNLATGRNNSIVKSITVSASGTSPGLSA
The experiment in a line: 125I-CEA radioimmunoassay.

In experiment [4] the target is T1, carcinoembryonic antigen (CEA). The experiment in a line: radioiodinated MAb (100 ng/ml) with increasing CEA; free versus bound antibody by HPLC sizing gel.
For experiment [5], the target named is CEACAM5/CEACAM6. The experiment in a line: cell-based or functional assay. This is another data set of the same source.
For another experiment, the target named is T2, NCA-95 on HeLa cells (UniProt P31997 35-320, limits assumed).
T2 construct: whole, on cells; also called HeLa-CGM6/1
T2 sequence (looked up): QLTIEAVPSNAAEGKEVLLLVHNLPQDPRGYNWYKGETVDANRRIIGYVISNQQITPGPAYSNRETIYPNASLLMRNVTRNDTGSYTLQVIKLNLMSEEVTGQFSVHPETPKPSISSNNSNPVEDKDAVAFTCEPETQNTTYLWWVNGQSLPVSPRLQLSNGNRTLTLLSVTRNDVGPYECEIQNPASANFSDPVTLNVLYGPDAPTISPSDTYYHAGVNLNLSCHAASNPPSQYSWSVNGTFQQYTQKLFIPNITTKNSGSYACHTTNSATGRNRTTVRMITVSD
The experiment in a line: indirect flow cytometry on HeLa-CGM6/1 transfectants. The protocol:
The reacitivty of antibodies was tested by flow cytometry with a Becton-Dickinson FACSCAN®. The biotinylated second antibody was directed against mouse IgG and was detected by a streptavidin/phycoerythrin conjugate. Tests were carried out with antibodies at 1/50 dilution of 1 mg/ml stocks.
The antibodies MN-3 and MN-15 were tested for recognition of HeLa cells transfected with cDNA coding for CEA (HeLa-CEA2), NCA-90 (HeLa-KNC6/S44) and NCA-95 (HeLa-CGM6/1). As a negative control, HeLa cells transfected with the plasmid pSV2-Neo (control HeLa cells, HeLa-NeoA) were used. In addition to the antibodies MN-3 and MN-15, three control antibodies were included: […]
(In general: A flow cytometer gives signals particle by particle.)

Experiment [6] addresses T1, carcinoembryonic antigen (CEA). The experiment in a line: competitive binding assay on CEA; unlabeled competitor varied against HRP-labeled murine MN-15.

Where two headings read alike, the source gives them in different places. Some results are limits rather than exact numbers.

Regarding MN-3 Fab′, the adhesion-inhibition of MCF-7, HT-29, BT-20 and Moser cells to endothelial cells with CEACAM5/CEACAM6 [1] lay within 49 to 58%. In experiment [2], this molecule came in with a reduction of cell invasion, BXPC3, collagen-based invasion assay of 0%; a reduction of cell invasion, CaPAN-1, collagen-based invasion assay of 55%; a reduction of cell invasion, LS174T, collagen-based invasion assay of 3%; a reduction of cell invasion, MCF-7, collagen-based invasion assay of 47%. Also, the reduction of cell invasion, ZR75-30, collagen-based invasion assay in experiment [2] was found to be 59%.
Regarding NP-4 antibody, the percent of radioiodinated CEA bound in experiment [3] is less than 50%. The molecule further showed a CEA concentration for 50% complexation of the antibody in experiment [4] of 1 to 2 µg/mL.

B1: MN-15 Fab′ (Fab, V domains shown)
VL: DIQLTQSPAIMSASPGEKVTMTCSASSRVSYIHWYQQKSGTSPKRWIYGTSTLASGVPARFSGSGSGTSYSLTISSMEAEDAATYYCQQWSYNPPTFGAGTKLELKR
VH: EVRLVESGGGLVQGPGSLRLSCAASGFALTDYYMSWVRQSPGKTLEWLGFIANKANGHTTDYSPSVKGRFTISRDNSQTILYLQMNTLRTEDSATYYCARDMGIRWNFDVWGQGTTVTVSS
The molecule B1 gave an adhesion-inhibition of MCF-7, HT-29, BT-20 and Moser cells to endothelial cells in the experiment with CEACAM5/CEACAM6 [5] of 49 to 58%.

B2: murine MN-15 antibody (antibody, mouse IgG1, V domains shown)
VH: EVRLVESGGGLVQGPGSLRLSCAASGFALTDYYMSWVRQSPGKTLEWLGFIANKANGHTTDYSPSVKGRFTISRDNSQTILYLQMNTLRTEDSATYYCARDMGIRWNFDVWGQGTTVTVSS
VL: DIQLTQSPAIMSASPGEKVTMTCSASSRVSYIHWYQQKSGTSPKRWIYGTSTLASGVPARFSGSGSGTSYSLTISSMEAEDAATYYCQQWSYNPPTFGAGTKLELKR
notes: also called mMN-15; MN-15 IgG
For B2, in the experiment with CEACAM5/CEACAM6 [5], the decrease of adhesion of CaPAN-1 cells to fibronectin stood at 47%, the decrease of adhesion of MCF-7 cells to fibronectin worked out at 29% and the decrease of adhesion of MDA-468 cells to fibronectin was 51%. The binding result in the experiment with NCA-95 on HeLa cells is given as “binds”. Further, the “IC50 (read off the curve)” value in experiment [6] is roughly 5 nM.

B3: chimeric MN-15 antibody (antibody, V domains shown)
VH: EVRLVESGGGLVQGPGSLRLSCAASGFALTDYYMSWVRQSPGKTLEWLGFIANKANGHTTDYSPSVKGRFTISRDNSQTILYLQMNTLRTEDSATYYCARDMGIRWNFDVWGQGTTVTVSS
VL: DIQLTQSPAIMSASPGEKVTMTCSASSRVSYIHWYQQKSGTSPKRWIYGTSTLASGVPARFSGSGSGTSYSLTISSMEAEDAATYYCQQWSYNPPTFGAGTKLELKR
As for B3, the “IC50 (read off the curve)” value in experiment [6] is roughly 5 nM.

B4: humanized MN-15 antibody (antibody, V domains shown)
VH: QVQLVESGGGVVQPGRSLRLSCSSSGFALTDYYMSWVRQAPGKGLEWLGFIANKANGHTTDYSPSVKGRFTISRDNSKNTLFLQMDSLRPEDTGVYFCARDMGIRWNFDVWGQGTPVTVSS
VL: DIQLTQSPSSLSASVGDRVTMTCSASSRVSYIHWYQQKPGKAPKRWIYGTSTLASGVPARFSGSGSGTDFTFTISSLQPEDIATYYCQQWSYNPPTFGQGTKVEIKR
notes: Humanized variable regions (REI VK and KOL VH frameworks) cloned alongside human IgG1 constant region genes; also called hMN-15
Take B4: the “IC50 (read off the curve)” value in experiment [6] is roughly 5 nM.
